In paper PMC3196576:

Assays:
GroEL CP376 (E. coli) = GroEL CP376 (E. coli) (UniProt P0A6F5); experiment: SEC; gel filtration profiles observed during purification (AKTA FPLC, 4°C); data not shown
GroEL CP376-RW (E. coli) [1] = target: GroEL CP376-RW (E. coli) (UniProt P0A6F5); experiment: negative-stain electron microscopy; GroEL alone, 0.25 mg/ml in 50 mM triethanolamine pH 7.5, 20 mM MgCl2, 50 mM KCl; 1% uranyl acetate
GroEL CP376-RW (E. coli) [2] = target: GroEL CP376-RW (E. coli) (UniProt P0A6F5); experiment: SEC; gel filtration profiles observed during purification (AKTA FPLC, 4°C); data not shown

stoichiometry N (GroEL CP376 (E. coli))	stoichiometry N (GroEL CP376-RW (E. coli) [1])	stoichiometry N (GroEL CP376-RW (E. coli) [2])	Substance
14			GroEL CP376 (from UniProt P0A6F5 376-548; P0A6F5 2-374)
	14	14	GroEL CP376-RW (from UniProt P0A6F5 376-548; P0A6F5 2-374)
